In patent US20200407433A1 (REMD BIOTHERAPEUTICS, published 2020):
Residue numbers refer to the chain shown, from its start.

T1: human Calcitonin Gene-Related Peptide (CGRP) (human, not fully specified)
T1 construct: also called hCGRP; Human CGRP
T1 peptide: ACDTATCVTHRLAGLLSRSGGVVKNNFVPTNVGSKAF

B1: murine mAb 30B8G9B11 (antibody, mouse IgG2a, V domains shown)
VH: EVQLQQSGPELVKPGASVKISCKASGYTFTDYYMNWVKQSHGKSLEWIGDVNPNNGGTHYNQKFKGKATLTVDKSSSTAYMELRSLTSEDSAVYYCASITIVPVYFDFWGQGTTLTVSS
VL: DIVMTQSQKFMSTSVGDRVSVTCKASQNVGPNVAWYRQKPGQSPKALIYSASYRYSGVPDRFTGSGSGTDFTLTISNVQSEDLADYICQQYNYYPYTFGGGTKLEIK
notes: Murine IgG2a, kappa; also called A3; Murine A3
B2: murine mAb 6G5C8C4 (antibody, mouse IgG2a, V domains shown)
VH: B1 VH with V51I, H59T, S77T, S98V, V104Y, F108Y
VL: B1 VL with P31S, R37Q, Y53F, G57R, T63S, I87F, Y93S, G100A, I106L
notes: Murine IgG2a, kappa; also called A1; 6G5C8C4 ("A1")
B3: murine mAb 24G7B10G2 (antibody, mouse IgG2a, V domains shown)
VH: B1 VH with Q5L, V12M, A16T, G57D, H59T, V72I, V104L, T116A
VL: B1 VL with P31I, R37Q, I48L, Q79K, E81G, D85E, I87F, Y93T
notes: Murine IgG2a, kappa; also called A2; 24G7B10G2 ("A2")
B4: murine-human chimeric IgG4 derived from murine antibody A3 (antibody, V domains shown)
VH: B1 VH
VL: DIVMTQSQKFMSTSVGDRVSVTCKASQNVGPNVAWYRQKPGQSPKALIYSASYRYSGVPDRFTGSGSGTDFTLTISNVQSEDLADYICQQYNYYPYTFGGGTKLEIKR
notes: also called chimeric antibody
B5: REMD 128 (antibody, human IgG4 S228P, kappa, V domains shown)
VH: QVQLVQSGAEVVKPGASVKVSCKASGYTFTDYYMNWVKQAPGQGLEWIGDVNPNNGGTHYNQKFKGRVTLTVDTSISTAYMELSRLRSDDTAVYYCASITIVPVYFDFWGQGTLVTVSS
VL: DIQLTQSPSFLSASVGDRVTITCKASQNVGPNVAWYRQKPGKAPKALIYSASYRYSGVPSRFSGSGSGTEFTLTISSLQPEDFATYICQQYNYYPYTFGQGTKLEIKR
notes: Humanized full-length IgG (IgG4 constant region, kappa); also called IgG 10 (H3/L2); 10 (H3/L2)
B6: REMD 128.2 (antibody, human IgG4 S228P, kappa, V domains shown)
VH: B5 VH with V20I, V68A, V115L
VL: B5 VL with A13T, A43S
notes: Humanized full-length IgG (IgG4 constant region, kappa); also called IgG 15 (H4/L3); 15 (H4/L3)
B7: REMD 128.3 (antibody, human IgG4 S228P, kappa, V domains shown)
VH: B5 VH with V20I, V68A, V115L
VL: B5 VL
notes: Humanized full-length IgG (IgG4 constant region, kappa); also called IgG 14 (H4/L2); 14 (H4/L2)
B8: REMD 128.1 (antibody, human IgG4 S228P, kappa, V domains shown)
VH: B5 VH
VL: B5 VL with A13T, A43S
notes: Humanized full-length IgG (IgG4 constant region, kappa); also called IgG 11 (H3/L3); 11 (H3/L3)

Each binder was assayed against T2, Rodent CGRP (rodent (murine)) (assay: ELISA, rodent CGRP binding).
T2 construct: also called murine CGRP
T2 sequence (Q99JA0 83-119): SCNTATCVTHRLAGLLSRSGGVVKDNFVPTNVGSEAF
Binder B1 has an EC50 of 296 pM.
B2 showed an EC50 of 361 pM.
B3 gave an EC50 of 328 pM.

Target: T1, human Calcitonin Gene-Related Peptide …
Experiment: ELISA, human CGRP binding
B1 showed an EC50 of 70 pM.
With B2 the EC50 was 100 pM.
For B3, the EC50 was 80 pM.

Target: T1, human Calcitonin Gene-Related Peptide …
Experiment: SPR Biacore T200; antibody amine-coupled to chip, CGRP as analyte
Description: The binding affinity between the chimeric IgG4 to antigen CGRP was determined using a Surface Plasmon Resonance (SPR) biosensor, Biacore T200 (GE Healthcare). 30B8G9B11 (“A3”) and chimeric IgG4 were each immobilized on the sensor chip through an amine coupling method. Antigen CGRP protein was used as analyte. The data of dissociation (kd) and association (kₐ) rate constants were obtained using Biacore T200 evaluation software. The equilibrium dissociation constants (KD) were calculated from the ratio of kd over kₐ.
With B1 the Kd was 2.92 pM, the koff was 1.56e-05 s⁻¹ and the kon was 5.33e+06 M⁻¹ s⁻¹.
Binder B4 has a Kd of 2.4 pM, a koff of 1.51e-05 s⁻¹ and a kon of 6.28e+06 M⁻¹ s⁻¹.

Target: T1, human Calcitonin Gene-Related Peptide …
Experiment: cell-based or functional assay
With B1 the “SK-N-MC CGRP IC50 (pM)” value was 152 pM.
With B2 the “SK-N-MC CGRP IC50 (pM)” value was 101 pM.
With B3 the “SK-N-MC CGRP IC50 (pM)” value was 195 pM.

Target: T1, human Calcitonin Gene-Related Peptide …
Experiment: cell-based or functional assay
Remark: another data set of the same source
B5 was tested, and the “SK-N-MC IC50 (pM)” value was 49.2 pM.
B6 was tested, and the “SK-N-MC IC50 (pM)” value was 60.4 pM.
B7 was tested, and the “SK-N-MC IC50 (pM)” value was 59.8 pM.
B8 was tested, and the “SK-N-MC IC50 (pM)” value was 38.9 pM.
For B1, the “SK-N-MC IC50 (pM)” value was 152 pM.
With B4 the “SK-N-MC IC50 (pM)” value was 152 pM.

Target: T1, human Calcitonin Gene-Related Peptide …
Experiment: SPR Biacore 8k; antibody amine-coupled to chip, CGRP as analyte
Description: The recombinant IgGs secreted to the medium and were purified using protein A affinity chromatography. Evaluating from the SDS-PAGE, the purity of humanized IgGs were all over 90%. The affinities of purified antibodies binding to CGRP were determined using a Surface Plasmon Resonance (SPR) biosensor, Biacore 8k. Antibodies were immobilized on the sensor chip through amine coupling method. Antigen CGRP was used as the analyte. The data of dissociation (kd) and association (ka) rate constants were obtained using Biacore 8k evaluation software. The equilibrium dissociation constants (KD) were calculated from the ratio of kd over ka.
Binder B5 has a Kd of 1.37 pM, a koff of 5.79e-06 s⁻¹ and a kon of 4.23e+06 M⁻¹ s⁻¹.
B6 was tested, and the Kd was 1.52 pM, the koff was 7.57e-06 s⁻¹ and the kon was 4.97e+06 M⁻¹ s⁻¹.
In the case of B7, the Kd is reported as 1.54 pM, the koff is reported as 7.01e-06 s⁻¹ and the kon is reported as 4.55e+06 M⁻¹ s⁻¹.
For B8, the Kd was 1.57 pM, the koff was 7.61e-06 s⁻¹ and the kon was 4.86e+06 M⁻¹ s⁻¹.
For B4, the Kd was 3.53 pM, the koff was 1.19e-05 s⁻¹ and the kon was 3.37e+06 M⁻¹ s⁻¹.
